Measured values published in paper PMC3802530.

Columns and labels:
K11-linked di-ubiquitin [1] = molecular target: K11-linked di-ubiquitin (UniProt P0CG48); test: NMR titration
K11-linked di-ubiquitin [2] = molecular target: K11-linked di-ubiquitin (UniProt P0CG48); test: 15N T1 relaxation
monoUb (Homo sapiens) = monoUb (Homo sapiens) (UniProt P0CG47); settings: cited from earlier work
[3] = molecular target: K48-linked di-ubiquitin (K48-Ub2) (Homo sapiens) (UniProt P0CG47); settings: cited from earlier work
[4] = molecular target: K63-linked di-ubiquitin (K63-Ub2) (Homo sapiens) (UniProt P0CG47); settings: cited from earlier work

Sequence of Ub-associated domain (UBA) of Ubiquilin-1 (Q9UMX0 546-586): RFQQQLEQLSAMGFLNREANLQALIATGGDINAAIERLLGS
Sequence of hHR23a UBA2 UBA2 (P54725 315-361): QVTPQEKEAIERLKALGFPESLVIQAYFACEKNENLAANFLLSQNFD

Question: Which Kd, site on the distal Ub (two independent sites) (K11-linked di-ubiquitin [1]) does the source give for “Ub-associated domain (UBA) of Ubiquilin-1 (from UniProt Q9UMX0 546-586) (domain or fragment)” here?
Answer: 2.9 µM

Question: What about the stoichiometry N (UQ1-UBA:K11-Ub2) (K11-linked di-ubiquitin [1]) of the same substance?
Answer: 2

Question: And the stoichiometry N (UBA molecules per K11-Ub2) (K11-linked di-ubiquitin [2])?
Answer: 2

Question: For hHR23a UBA2 UBA2 (from UniProt P54725), which Kd (monoUb (Homo sapiens)) is on record?
Answer: 400 µM

Question: What about the Kd [3] of the same substance?
Answer: 18 µM

Question: And the Kd [4]?
Answer: > 200 µM
